Where no end group is shown, it is not given here. [ ]: non-standard residue; d: D form. The star is where a group is joined. Orn = NCCC[C@H](N)C(=O)O; Hexanoyl = CCCCCC(=O)*; Aib = CC(C)(N)C(=O)O
Columns and labels:
Test in all cases: cell-based or functional assay
rat VPAC2 receptor = target: T1, rat VPAC2 receptor (rat, UniProt P35000 23-437)
T1 sequence (looked up): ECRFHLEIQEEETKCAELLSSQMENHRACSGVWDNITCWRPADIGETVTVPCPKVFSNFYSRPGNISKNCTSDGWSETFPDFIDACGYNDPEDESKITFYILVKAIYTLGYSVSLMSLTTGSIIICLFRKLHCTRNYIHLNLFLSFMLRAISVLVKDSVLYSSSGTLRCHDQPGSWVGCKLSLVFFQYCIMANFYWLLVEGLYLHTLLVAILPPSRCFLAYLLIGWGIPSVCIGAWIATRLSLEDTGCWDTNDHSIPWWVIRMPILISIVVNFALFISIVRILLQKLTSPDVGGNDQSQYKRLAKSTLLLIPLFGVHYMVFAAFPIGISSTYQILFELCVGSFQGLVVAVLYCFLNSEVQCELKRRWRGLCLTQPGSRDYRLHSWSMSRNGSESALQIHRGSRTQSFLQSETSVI

human VPAC2 receptor = target: T2, human VPAC2 receptor (human, UniProt P41587 24-438)
T2 sequence (looked up): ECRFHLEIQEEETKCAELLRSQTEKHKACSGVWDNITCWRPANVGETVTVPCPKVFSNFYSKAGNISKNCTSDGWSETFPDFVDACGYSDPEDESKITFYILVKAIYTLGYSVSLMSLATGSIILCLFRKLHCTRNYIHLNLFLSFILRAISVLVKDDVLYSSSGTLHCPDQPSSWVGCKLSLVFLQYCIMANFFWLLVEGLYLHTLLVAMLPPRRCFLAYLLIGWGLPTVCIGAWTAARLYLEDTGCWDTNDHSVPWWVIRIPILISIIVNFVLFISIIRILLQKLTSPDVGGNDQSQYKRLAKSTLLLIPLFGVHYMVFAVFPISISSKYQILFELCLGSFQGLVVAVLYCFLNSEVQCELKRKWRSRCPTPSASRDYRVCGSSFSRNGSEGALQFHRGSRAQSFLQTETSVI

rat VPAC1 receptor = target: T3, rat VPAC1 receptor (rat, UniProt P30083 31-459)
T3 sequence (looked up): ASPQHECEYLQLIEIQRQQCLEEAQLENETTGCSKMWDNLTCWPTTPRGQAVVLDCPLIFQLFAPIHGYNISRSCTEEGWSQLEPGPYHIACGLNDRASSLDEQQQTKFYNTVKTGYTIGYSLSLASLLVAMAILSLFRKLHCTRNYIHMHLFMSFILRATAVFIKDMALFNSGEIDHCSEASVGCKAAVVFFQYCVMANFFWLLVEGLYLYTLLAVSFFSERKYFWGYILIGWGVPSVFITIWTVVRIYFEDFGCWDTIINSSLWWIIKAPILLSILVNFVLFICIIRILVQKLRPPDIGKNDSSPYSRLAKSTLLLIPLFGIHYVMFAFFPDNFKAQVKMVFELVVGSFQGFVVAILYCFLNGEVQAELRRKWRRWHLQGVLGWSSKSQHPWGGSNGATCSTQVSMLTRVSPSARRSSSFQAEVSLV

human VPAC1 receptor = target: T4, human VPAC1 receptor (human, UniProt P32241 31-457)
T4 sequence (looked up): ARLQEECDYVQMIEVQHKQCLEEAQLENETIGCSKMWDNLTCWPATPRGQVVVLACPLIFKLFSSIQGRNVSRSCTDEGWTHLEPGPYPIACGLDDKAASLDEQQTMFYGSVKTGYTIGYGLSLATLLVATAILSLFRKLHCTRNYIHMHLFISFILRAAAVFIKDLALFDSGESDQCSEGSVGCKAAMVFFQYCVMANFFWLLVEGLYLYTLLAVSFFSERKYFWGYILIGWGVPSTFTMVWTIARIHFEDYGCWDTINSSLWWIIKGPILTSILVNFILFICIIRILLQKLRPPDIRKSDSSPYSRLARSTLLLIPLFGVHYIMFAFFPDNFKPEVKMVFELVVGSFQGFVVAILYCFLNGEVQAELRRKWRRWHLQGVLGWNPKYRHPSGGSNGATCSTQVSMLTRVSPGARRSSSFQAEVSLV

human PAC1 receptor = target: T5, human PAC1 receptor (human, UniProt P41586 21-468)
T5 sequence (looked up): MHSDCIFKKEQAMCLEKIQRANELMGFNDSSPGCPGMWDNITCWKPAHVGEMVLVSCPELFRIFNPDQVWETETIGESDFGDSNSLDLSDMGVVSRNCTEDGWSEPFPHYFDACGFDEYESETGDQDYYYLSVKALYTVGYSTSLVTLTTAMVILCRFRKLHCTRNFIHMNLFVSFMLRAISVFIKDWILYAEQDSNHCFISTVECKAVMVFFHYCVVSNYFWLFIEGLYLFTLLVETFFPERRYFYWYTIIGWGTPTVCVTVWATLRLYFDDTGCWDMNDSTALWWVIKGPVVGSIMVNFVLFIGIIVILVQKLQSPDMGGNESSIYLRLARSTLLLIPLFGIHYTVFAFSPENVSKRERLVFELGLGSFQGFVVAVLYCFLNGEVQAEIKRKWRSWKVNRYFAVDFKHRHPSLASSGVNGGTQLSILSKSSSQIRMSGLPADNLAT

| Binder | EC50 cAMP, DiscoveRx (rat VPAC2 receptor) [nM] | EC50 cAMP, Alpha Screen (human VPAC2 receptor) [nM] | EC50 cAMP, DiscoveRx (rat VPAC1 receptor) [nM] | also measured |
| --- | --- | --- | --- | --- |
| HSDAVFTDNYTXLRXQVAAXKYLQSIXNXGGPSSGAPPPS (N-terminal hexanoyl (C6); hR at 12, 27, 29; Aib at 15, 20) [P329] | 0.15 |  |  |  |
| Hexanoyl-HSDAVFTDNYTRLRKQMAAQKYLNQLKKGGPSSGAPPPS [P143] |  | 0.1 | 3.81 |  |
| Hexanoyl-HSDAVFTDNYTRLRKQVAAKKYLQSIKNKKGGPSSGAPPPS [P121] |  | 0.1 | 0.66 |  |
| Hexanoyl-HSDAVFTDNYTRL[Aib]KQLAAK[Aib]YLQSIKNKRYGGPSSGAPPPS (ends and bridges not checked) [P241] |  | 2.17 | 61.1 |  |
| Hexanoyl-HSDAVFTDNYTRLRKQVAAKKYLQTIKNKRYGGPSSGAPPPS [P115] |  | 0.2 | 0.95 |  |
| Hexanoyl-HGEGTFTDNYTRLRKQVAAKKYLQSIKNKRYGGPSSGAPPPS [P222] | 34.9 | 0.51 | 43.9 |  |
| Hexanoyl-HSDAVFTDNYTRLQKQVAAKKYLQSIKNKRYGGPSSGAPPPS [P172] | 0.11 | 0.29 |  |  |
| Hexanoyl-HSDAVFTDNYTRLLAKVAAKKYLQSIKNKRYGGPSSGAPPPS [P135] | 0.05 | 0.18 |  |  |
| Hexanoyl-HSDAVFTDNYTRLRQQVAAKKYLQSIKNKRYGGPSSGAPPPS [P177] | 0.1 | 0.21 |  |  |
| Hexanoyl-HSDAVFTDNYTRLRKQVAAKKYLQSIKNKRYGGPSSGAPPPC [P120] |  |  | 0.42 |  |
| Hexanoyl-HSDAVFTDNYTRLRKQVAAQKYLQSIKNKRYGGPSSGAPPPS [P150] | 0.1 | 0.18 |  |  |
| MHSDAVFTDNYTRLLAKLALQKYLQSIKNKRYGGPSSGAPPPS (N-terminal methionine added (M-)) [P140] |  | 0.07 | 5.81 |  |
| HSDAVFTDNYTXLRXQVAAXKYLQSIKNKRYGGPSSGAPPPS (N-terminal hexanoyl (C6); Orn at 12; Aib at 15, 20) [P344] |  | 0.13 | 1.56 |  |
| HSDAVFTDNYTRLRKQVAAKKYLQSIKNNRYGGPSSGAPPPS [P75] |  |  |  | EC50 cAMP, DiscoveRx (human VPAC2 receptor): 3.44 nM; EC50 cAMP, DiscoveRx (human VPAC1 receptor): 0.65 nM; EC50 cAMP, DiscoveRx (human PAC1 receptor): 13.4 nM |
| HSDAVFTDNYTRLRKQVAAKKYLQSIKNKIYGGPSSGAPPPS [P76] |  |  |  | EC50 cAMP, DiscoveRx (human VPAC2 receptor): 3.88 nM; EC50 cAMP, DiscoveRx (human VPAC1 receptor): 0.8 nM; EC50 cAMP, DiscoveRx (human PAC1 receptor): 15.9 nM |
| Hexanoyl-HSDAVFTDNYTRLR[Aib]QVAAKKYLQSIKNKRYGGPSSGAPPPS (ends and bridges not checked) [P168] | 0.05 | 0.27 |  |  |
| Hexanoyl-HSDAVFTDNYTRLRKQVAAK[Aib]YLQSIKNKRYGGPSSGAPPPS (ends and bridges not checked) [P170] | 0.15 | 0.18 |  |  |
| Hexanoyl-HSDAVFTDNYTRLQKQVAAK[Aib]YLQSIKNKRYGGPSSGAPPPS (ends and bridges not checked) [P251] |  | 0.92 | 212 |  |
| Hexanoyl-HSDAVFTDNYTRLR[Aib]QVAA[Aib][Orn]YLQSIKNKRYGGPSSGAPPPS (ends and bridges not checked) [P342] |  | 0.21 | 2.39 |  |
| Hexanoyl-HSDAVFTDNYTRLRKQVAAKKYLQSIKQKGGPSSGAPPPS [P270] |  | 0.13 | 0.67 |  |
| Hexanoyl-HSDAVFTDNYTRLRKQVAAKKYLQSIKNGGPSSGAPPPS [P154] |  | 0.18 | 0.85 |  |
| Hexanoyl-HSDAVFTDNYTRLR[Aib]QLAA[Aib]KYLQSIKNKRYGGPSSGAPPPS (ends and bridges not checked) [P291] |  | 0.36 | 1.12 |  |
| HSDAVFTDNYTXLRXQVAAXKYLQSIXXGGPSSGAPPPS (N-terminal hexanoyl (C6); Orn at 12; Aib at 15, 20; hR at 27, 28) [P335] | 0.05 | 0.22 |  |  |
| Hexanoyl-HSDAVFTDNYTR[Aib]R[Aib]QVAA[Aib]KYLQSIKNKRYGGPSSGAPPPS (ends and bridges not checked) [P346] |  | 0.23 | 3.02 |  |

Reference: patent US20080026996A1, “Selective Vpac2 Receptor Reptide Agonists” (ELI LILLY AND COMPANY, priority 2004, published 2008)
